Measured values reported in patent US20240043505A1.

Target: SARS-CoV-2 RBD E484K mutant (SARS-CoV-2), P0DTC2
Settings: remark: other sources report otherwise

B1: Nb21 (VHH)
VHH: QVQLVESGGGLVQAGGSLRLSCAVSGLGAHRVGWFRRAPGKEREFVAAIGANGGNTNYLDSVKGRFTISRDNAKNTIYLQMNSLKPQDTAVYYCAARDIETAEYTYWGQGTQVTVSS
Binder B1 has a binding affinity fold change relative to RBD WT of less than -1000 fold.
